Test results taken from the DeepSol protein solubility set.

Assay: soluble on expression in E. coli; label from the status in PepcDB or PDB records

Sequence	soluble on expression in E. coli
MSKLEAILSQEVEAEIQALLQEAEAKAEAVKREAEEKAKALLQARERALEAQYRAALRRAESAGELLVATARTQARGEVLEEVRRRVREALEALPQKPEWPEVVRKLALEALEALPGAKALVANPEDLPHLEAMARERGVELQAEPALRLGVRAVGAEGKTQVENSLLARMDRAWDAMSSKVAQALWG	soluble
MKIQDYTKEMVDEKSFIDMAYTLLNDKQTTMNLYDIIDEFKSLGGYEYEDIENRIVQFYTDLNTDGRFLNVGENLWGLRDWYSVDDIEEKIAPTIQKFDILDDEDEEDQNLKLLGDDDADEDDDIPAQTDDQETLDESDNDEDDVEMNEADIVIDEDEDEDIAEGEEEAFEDAEDFND	not soluble
MSSGFGGEKEEEITQKTAKSSEKAIVPKYNISDSYYKMVLPFKAGKARGLTTEQLNTRLDIDEFETGLMRLAQDSFSTDDYLFQEGQYLDEDTVLSWLARKKTGSDLKKAEKEDKNFKNEGLNPALPSSGSTEEKNESSPIYLASMLEHDYLVRKDKNSIQLGGVMIGLALNSVYYYREKTGDPQKEVEIKDSTLRQQGEKIAQEVINRLRKKDNLKNVPITVALYKQASKTSIVPGNFIAKTEVKAGSTDISNWDDINEKYVFYPADTTTAEKYPDDTEVFKRFKNSIEEYFPNYTGVVGTALYENDEMKKMKIDIPMQFYGKSEVVAFTQFLTGEVMDYYSKSSVDVEVNITSSDGQEAVIIRNAGDKEPTVHIYDLEHHHHHH	soluble
GLMALLMVFAVSIGGLTQIVPLFFQDVTNKPVEGMKPYTALQLEGRDVYIREGCVGCHSQMIRPFRAETERYGHYSVAGESVWDHPFLWGSKRTGPDLARVGGRYSDDWHRAHLYNPRNVVPESKMPSYPWLVAQPVDNSHTDVKMRTLRTLGVPYTDDDIAGAREAVKGKTEMDALVAYLQVLGT	not soluble
LDPPSGELSLPEDIPGEAKVYFDDEGVPYIHASSDEAAFYAAGWVHASLRLFQMDVFRRVGLGELSGLVGEAGLEADRRAAILGLRSVVDAEWRHIQNNPEFGEIVRIVEAYTAGVNGYISYALKTGRLPVEYRVLGVKPSPWLPQDTLAMAKVLALMLSYSEDDLILDRLVRKWGPEVIADFDIVGRSLNMPHASCDMAVDWGDVTGLEGPYNPLLSVEERREPLHESEPLDLGYNPDPEIIAAVVDRVLYMLSWNAASNNWVVSGSLTVSGNPLLANDPHLSLTAPGIWLPIVISSPSYSLAGVTIPGVPLVVIGRNSHVAWGFTNVGSDFTDFYRYQWVDENRYFYKGRIFGVEKSSIEAYVWDPLARSYRVQEISVARTIHGPVIEWQGEKFAVSYTSARPTFEMIFLWLLNKASSVRDALSAQRYFYGPPQNMVVADSAGNIAYSPVGAYPERATLPTIETGYGPIVNTGFLPFDGSAGEGEWRGFKPYSSLPVLFNPPQGFVATANSKPFEDGCWDGLGWDYADRFRTERIYTLLQERSAEEPLDAGDMRDIQLDVEDLGLKTLVSLMVRVASGDGGHVLERYMDMLAEWAENPQM	not soluble
MVEVKPIIIDGHPFIAVSVQLPKTNLLAVAGEKGYIMCGALDVALLNEKLRDRGIIAGRAVGVRTIEQLLEAPLESVTVAALELGIEEGMKGREALLKMR	not soluble
MSLAYGSLLFKRFSITIKYRKLIVEHIEKGDLKLTEEFKNILRDLMVTTFKKADSILIEKCKAEEKHYSSCTGVVLLFIKDILVNAHIGDSRSVACTYSNSINLAQFLTIDHKPDQPLEYRRIVENGGSVEYLQNHNNKPFLRGGDFTRRRARGETPMQLQYSRAFGGKDLKPYGLSCVPDISIISLNQNNRLFIIATDGIWDLLSAQQSCDLSFYSQELGIQPARYLVNAVLEETRNRNTNCDNLTAICIMHIKNEGHHHHHH	soluble
MAGGGNFIARVISYVANEFIVNGLANSHAFQRFAVRTSKRIENLSKMAAENREKVAQQMEEFAKNIDVIHEETLIILVWNLKTSVNHMGQLK	not soluble
MAHHHHHHMTILHNPGLPRVLNRITPQRLELTLMLIKERKKKLRYLGSYLQHYNDRTFLYNAMGGLNGTKFIIERHHHRAQYCHPTLHNERYSVRTIKMKGAQFDQVGNFTRNTWDCSVATTNLFQDATFRRHLSAIHKDEAIALLEGWGVKYVLLDEVRKPSVQDSIYVRHNLYIHKFPHIPDPVTNVYHGDADWKWKGDEKIDYTSYGASTKDERNTFQSLWSAAVRESKDSGVAKTVQAGKKL	not soluble
GPGSMLTTTDVGGVVRRINVDYKKLKAAYDQNNDSLCLNLVNGLKKQLILLPTFLNPAAASATWLEEVTLTREVLEYAVLVSARLEDLASFELYFNQLSVYYTDIDPTKLEESPLYSLILGLNLVRLLVDDRIAQFHTELEKVPNHIYAPNAYVRFAVLLERYLMEGSYSKLLNSRDQAPSKEYIPIVGMLEKTVRQGVAECIPHSYAKLSFERAQKILMVDSTDAVREIGKQYEWELGKDGASFVFTRREDIAKREVPFQEMLGHHLNFAADLQRIV	soluble
MGSDKIHHHHHHMGPLSGITILDLTSVLMGPYATQTLADMGADVVKVESPEGDIVRHIGPGRTPGMGGMFLNTNRGKRSIVIDLKQNDGREALLRLAARANALIYNVRPQAMARLGLSYEQVAAVNPGIVYLGAFGYGQDGPYAAKPAYDDLIQGAAGVPTLLAAAGDGTPRYVPITIADRIVGLMAVNAMLGALMHQQRTGEGQRIDVPMFESMASFVLVDHLGGLTYEPPLDHGGYARLLSRSRKPYRTSDGYLCVLIYNDKQWRSFFEAIDRTDFLAQPRFANHAARTRHIDEIYEEIGAIFLTRTTAEWRELLERADIPVMPMHSMESILDDPHLRAVGFFETVEHPVEGRVRQMKVPSTWSATQPQPGGPAPTLGGNGRDILTEAGFSSAEIERLGHSKAVHLPD	not soluble
NNELSPVALRQMSCAAGTTQTACTDDNALAYYNNSKGGRFVLALLSDHQDLKWARFPKSDGTGTIYTELEPPCRFVTDTPKGPKVKYLYFIKGLNNLNRGMVLESLAATVRLQLEHHHHHH	soluble
MDFKHLTQFKDIIELDKRPVKLDERETFNVSWGIDENYQVGAAISIASILENNKQNKFTFHIIADYLDKEYIELLSQLATKYQTVIKLYHIDSEPLKALPQSNIWPVSIYYRLLSFDYFSARLDSLLYLDADIVCKGSLNELIALEFKDEYGAVVIDVDAMQSKSAERLCNEDFNGSYFNSGVMYINLREWLKQRLTEKFFDLLSDESIIKKLKYPDQDILNLMFLHHAKILPRKYNCIYTIKSEFEEKNSEYYTRFINDDTVFIHYTGITKPWHDWANYASADYFRNIYNISPWRNIPYKKAVKKHEYKEKYKHLLYQKKFLDGVFTAIKYNVMKG	not soluble
GESLFKGPRDYNPISSTICHLTNESDGHTTSLYGIGFGPFIITNKHLFRRNNGTLLVQSLHGVFKVKNTTTLQQHLIDGRDMIIIRMPKDFPPFPQKLKFREPQREERICLVTTNFQTKSMSSMVSDTSCTFPSSDGIFWKHWIQTKDGQAGSPLVSTRDGFIVGIHSASNFTNTNNYFTSVPKNFMELLTNQEAQQWVSGWRLNADSVLWGGHKVFMSKPEEPFQPVKEATQLMNELVYSQ	soluble
VRQKGIDIIFMLDISNSMLARDTAPDRLTHAKTELLQISRRLGDGRKALLLFAGTPVVQCPLTDDEEDFEILLDMAAPELITTQGTDYRRAFDAALKLTNSGGELSSNETVLVLASDGEDHGNDLGDIATAMKTRGVHLHVIGVGGVQPVPIPMQGGPKRDQQGKIVLTSFKPEPLASLIKTAKGKFYYSRPDAPVHDAVADDIAAEAAEA	not soluble
MGDSFYIRTHFELEPSPPSGLGFTRGDVFHVLDTLHPGPGQSHARGGHWLAVRMGRDLREQERGIIPNQSRAEQLASLEAAQRAVGVGPGSSAGSNARAEFWRLRGLRRGAKKTTQRSREDLSALTRQGRYPPYERVVLREASFKRPVVILGPVADIAMQKLTAEMPDQFEIAETVSRTDSPSKIIKLDTVRVIAEKDKHALLDVTPSAIERLNYVQYYPIVVFFIPESRPALKALRQWLAPASRRSTRRLYAQAQKLRKHSSHLFTATIPLNGTSDTWYQELKAIIREQQTRPIWTAEDQLHHHHHH	soluble
SLYIEMVDETGQVSKEMLQQTQEILEFAAQKLGKEDKEMAVTFVTNERSHELNLEYRDTDRPTDVISLEYKPELEIAFDEEDLLENPELAEMMSEFDAYIGELFISIDKAHEQAEEYGHSFEREMGFLAVHGFLHINGYDHYTPEEEAEMFGLQEEILTAYGLTRQ	soluble
MSLIRMALAAVCALLFSITTMTPFVQASEITISGSTSVARIMDVLAEKYNQQHPETYVAVQGVGSTAGISLLKKGVADIAMTSRYLTESEAQNTLHTFTLAFDGLAIVVNQANPVTNLTREQLYGIYKGQITNWKQVGGNDQKIAVVTREASSGTRYSFESLMGLTKTVKDREVSDVAPTALVVNSNSMMKTLVNHNTQAVGFISIGSVDKSVKAIQFEKADPTSDNIAKHTYQLSRPFLILHYSDNADEQTKEFIAFLKSESAKKLIVEYGYIMPSDVEEGGSHHHHHH	soluble
MGSDKIHHHHHHMLAIIKQFFAKSHGTTVSDSRFLALNHWLSNTFGEPLSPVLISGDASFRRYFRAVHQGRAMVIMDTPVALIPTEPFVAVRNAYAASGLPVPGIIAKDDEQGFMALEDFGDVQLLSLLNSQSVRHWYPRALALLPGIAAVTQTVLGPLPDYDDAFVRRELGIFTEWLLGTHLKLELTSDEEAIIADAFDMLTQNALEQPKVGMHRDFHSRNLMVVDGELKLLDFQDAVLGPVTYDAVSLLRDCYIRWSEDLVDDMLVEFFVLAHEHALVPPHTDMVQFRRWFELMGLQRHIKAAGIFARLNHRDGKAGYLKDIPLTMHYIRDVAVRYKELGDFAQFIMRRVMPALEAGA	not soluble
MRVIFMRQVTKSKKIKILPYPEWLVKAGMSKGIDHDRQHLGIILAAGEMIKVRQVNAEYKEKLKLYLLNDNKNTQRSISFNTDWIELSVDAISVPFINTPYSDGIIPEIVFEYPDTSKLLPVYEKGEDESIFFESWDKQNAEFGVVESEYVIILIPEVSKDRLKSFSTSGGIDTVLGFYQDIFSFNNSLAGLSFEPQRYSDGNTRNRYFAKADKGGGGAAYYSNNWIASSSGSINTFWLSPNATNWGCLHEIAHGYQGGFIDDKYFSTREVWNNIYAACYQDVMLGAEKFNKGWLYNFGKQKEVEKSILNNINNGKEVNAWGERSKLYFIMLMLEKAGVNCFTHFNQIYRERKNTDQSVGSVLDMLSNSFATVENRVDVTLFLQMVGGHISKNQYQRNLFSHAKAVYPLNQLLQGDELTAVKKTLDLNSELSLVDVDSIEFTDIKSNLTLQFSIDDFAQIYGEELLILNGDNYVYNQSIMDKKQTLYNLPVGAYTLRIPTGRNKKYAPQINYLIVKNEDSQTQVDFVHRIGSPIVSQKISLQGLNDYTFATIFFDQENDTVSVDITKTKPHYHFPGMYARIRIKDKDNNELLNEVITGTNQSLSKNDFPLSSCYVIDIFHKEPGRVKLTPAYKGVIDNKSSYNEFIITPYGLQNIKLNNDPKVFLLENIKSAAEMLRSHPIMWHANFSEAKDNIYLAIDIFPSPQKEGLLEQYADCISSYYEKPNEDLGNAFSFIFKGINDREFLTTKLNLVTKKLEVKIVSGTPHSGFKRTYAVLRYFNADGNELLNLDIIGSKKQAGQEWVFPISGYGGEKLYLQHVEPKNRLVITNIMQGIRLSSRTSIQTYEIESLGLSRCT	not soluble
